Source: PMC5433843

B1: EGFP-Mps1^WT [Drosophila] / MBP-PP1-87B [Drosophila] (parent)
chain 1: MTTPVPRRTKDMMALGLDSDSEDDFNTPYRPRQAAAGERKQQPVASFQVQTRGKENEPHPLPINMLPRRVSELTMMDSDSDEEDIKSNHNLNCAILNDSFVLSPSQELTNSNSNITTRRTPSAAPLKQSDSNLSFLGRFNDMGINCSSQGSPVANSEKQVAKKTAPTLQAAPSATERRPLQETETPLRNELPSTSKTKPDADFITPQVRTIGSTLAGKSRSAVSNDFRAQKVLFQTPMTVSRAAPVASDSISFSLCDTITESPDIPEPPKKAEPPKSQHPSKKSLDHVFRESDKDNVPDKVDNVEPKELVSIPAVAVPPEQPSHKTSNILKIKNHEYTIDKKLGCGGSSSVFLARRSDSGNEFALKVVDLQADPQVVQGYLNETKLLAKLQGNVCVVALYDYQLVREESKLYMVMEKGDCDLNKILQSYTTNLPLYSLMNILYQMLQAVNYIHQHGVIHSDLKPANFLMVSGRLKLIDFGIASNIAVDSTSIIKFSQAGTFNYISPEALTDTSTGNSPMRRADQPKIKISTKSDVWSLGCILYLLLYQKTPFGHIRNVYAKMSAITTPGTSIEYPAIPPYYPIMLVHMAKNCLQLNPKKRPSCTELLQYPFHMIIPLQNLQIPSRTANSN
chain 2: MGDVMNIDSIISRLLEVRGARPGKNVQLSEGEIRGLCLKSREIFLSQPILLELEAPLKICGDIHGQYYDLLRLFEYGGFPPESNYLFLGDYVDRGKQSLETICLLLAYKIKYSENFFLLRGNHECASINRIYGFYDECKRRYSIKLWKTFTDCFNCLPVAAIVDEKIFCCHGGLSPDLTSMEQIRRIMRPTDVPDQGLLCDLLWSDPDKDTMGWGENDRGVSFTFGAEVVAKFLQKHEFDLICRAHQVVEDGYEFFAKRMLVTLFSAPNYCGEFDNAGAMMSVDDTLMCSFQILKPADKRKK

Variants of: B1
Assay: pull-down (MBP-PP1-87B beads, S2 cell lysates), western blot chemiluminescence quantification
Settings: with MBP-PP1-87B [Drosophila]; at least two independent experiments; mean ± SD; parent: 1; read off a plot

| ratio to parent | Variant |
| --- | --- |
| 0.3 | chain 1 K231A F234A |
